This note sets out measurements from publication PMC9976902, “Interaction of human HelQ with DNA polymerase delta halts DNA synthesis and stimulates DNA single-strand annealing” (Nucleic Acids Research, 2022).

In one data set the target is T1, HelQ (human, UniProt Q8TDG4 1-1101).
T1 sequence: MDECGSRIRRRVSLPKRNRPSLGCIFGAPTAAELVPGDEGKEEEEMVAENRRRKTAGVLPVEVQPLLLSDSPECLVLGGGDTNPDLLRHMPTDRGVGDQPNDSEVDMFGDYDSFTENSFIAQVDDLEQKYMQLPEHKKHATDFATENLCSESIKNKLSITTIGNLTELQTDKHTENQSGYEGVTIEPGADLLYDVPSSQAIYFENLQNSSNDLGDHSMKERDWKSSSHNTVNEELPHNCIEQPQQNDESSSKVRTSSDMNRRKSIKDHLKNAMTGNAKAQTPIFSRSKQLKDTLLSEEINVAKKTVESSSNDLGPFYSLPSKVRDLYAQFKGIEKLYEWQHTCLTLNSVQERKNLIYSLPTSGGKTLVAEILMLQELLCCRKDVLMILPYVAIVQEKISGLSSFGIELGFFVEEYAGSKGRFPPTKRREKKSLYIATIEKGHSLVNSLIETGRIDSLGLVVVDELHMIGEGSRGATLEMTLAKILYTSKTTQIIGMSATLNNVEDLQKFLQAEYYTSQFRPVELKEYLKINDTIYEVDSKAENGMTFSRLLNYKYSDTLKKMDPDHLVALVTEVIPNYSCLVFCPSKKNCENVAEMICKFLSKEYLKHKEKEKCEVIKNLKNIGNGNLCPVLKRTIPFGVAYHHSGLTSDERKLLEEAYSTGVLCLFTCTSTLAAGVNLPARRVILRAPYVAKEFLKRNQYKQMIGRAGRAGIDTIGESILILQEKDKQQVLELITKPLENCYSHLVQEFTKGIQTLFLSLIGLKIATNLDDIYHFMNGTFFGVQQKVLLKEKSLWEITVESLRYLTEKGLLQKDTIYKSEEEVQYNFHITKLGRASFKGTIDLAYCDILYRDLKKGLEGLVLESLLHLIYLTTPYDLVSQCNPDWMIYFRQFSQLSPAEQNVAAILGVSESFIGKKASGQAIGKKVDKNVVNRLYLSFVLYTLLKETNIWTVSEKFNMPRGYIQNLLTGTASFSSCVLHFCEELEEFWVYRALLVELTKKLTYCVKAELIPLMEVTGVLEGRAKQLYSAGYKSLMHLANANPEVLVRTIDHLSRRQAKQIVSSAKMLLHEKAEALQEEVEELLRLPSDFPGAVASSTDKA
In words: EMSA; 50 mM EDTA; HelQ 100-400 nM, DNA 15 nM; EMSA: 20 mM Tris-HCl pH 7.5, 100 mg/ml BSA (so in the source), 7% glycerol, 25 mM DTT, 50 mM EDTA, 25 nM DNA (Methods; 15 nM in legend), 37 C 10 min, 5% TBE gel. The note with it: protein: recombinant; label: Cy5 end label; fork 1:2-25 paired with 2:27-50; 3' tail 25 nt (strand 1), 5' tail 26 nt (strand 2), 1 nt 5' overhang on strand 1. For orientation: In EMSA bound probe runs differently from free probe, usually more slowly.

In data set [1] the target is T2, human DNA polymerase δ complex (PolD1-4) (human, UniProt P28340 1-1107; P49005 1-469; Q15054 1-466; Q9HCU8 1-107).
Data set [2] addresses T2, human DNA polymerase δ complex (PolD1-4). The experiment in a line: cell-based or functional assay.
Data set [3] concerns the target T3, human Pol δ sub-unit POLD3, purified individually (human, UniProt Q15054 1-466).
T3 sequence (looked up): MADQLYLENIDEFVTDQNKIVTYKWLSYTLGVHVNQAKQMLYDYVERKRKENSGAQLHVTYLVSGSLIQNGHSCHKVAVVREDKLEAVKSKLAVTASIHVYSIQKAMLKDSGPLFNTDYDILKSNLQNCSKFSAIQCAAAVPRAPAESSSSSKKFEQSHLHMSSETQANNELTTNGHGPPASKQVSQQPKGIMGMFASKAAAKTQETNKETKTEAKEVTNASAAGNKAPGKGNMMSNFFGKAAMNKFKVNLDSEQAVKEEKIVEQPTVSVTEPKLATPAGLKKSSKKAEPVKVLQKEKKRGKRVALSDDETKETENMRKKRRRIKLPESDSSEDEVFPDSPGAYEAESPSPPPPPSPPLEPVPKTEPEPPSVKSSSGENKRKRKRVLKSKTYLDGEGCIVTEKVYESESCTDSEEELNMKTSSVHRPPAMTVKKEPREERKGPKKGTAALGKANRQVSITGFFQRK
The experiment in a line: cell-based or functional assay.

T2 sequence (P28340 whole entry, stated change not applied, chain 1 of 3): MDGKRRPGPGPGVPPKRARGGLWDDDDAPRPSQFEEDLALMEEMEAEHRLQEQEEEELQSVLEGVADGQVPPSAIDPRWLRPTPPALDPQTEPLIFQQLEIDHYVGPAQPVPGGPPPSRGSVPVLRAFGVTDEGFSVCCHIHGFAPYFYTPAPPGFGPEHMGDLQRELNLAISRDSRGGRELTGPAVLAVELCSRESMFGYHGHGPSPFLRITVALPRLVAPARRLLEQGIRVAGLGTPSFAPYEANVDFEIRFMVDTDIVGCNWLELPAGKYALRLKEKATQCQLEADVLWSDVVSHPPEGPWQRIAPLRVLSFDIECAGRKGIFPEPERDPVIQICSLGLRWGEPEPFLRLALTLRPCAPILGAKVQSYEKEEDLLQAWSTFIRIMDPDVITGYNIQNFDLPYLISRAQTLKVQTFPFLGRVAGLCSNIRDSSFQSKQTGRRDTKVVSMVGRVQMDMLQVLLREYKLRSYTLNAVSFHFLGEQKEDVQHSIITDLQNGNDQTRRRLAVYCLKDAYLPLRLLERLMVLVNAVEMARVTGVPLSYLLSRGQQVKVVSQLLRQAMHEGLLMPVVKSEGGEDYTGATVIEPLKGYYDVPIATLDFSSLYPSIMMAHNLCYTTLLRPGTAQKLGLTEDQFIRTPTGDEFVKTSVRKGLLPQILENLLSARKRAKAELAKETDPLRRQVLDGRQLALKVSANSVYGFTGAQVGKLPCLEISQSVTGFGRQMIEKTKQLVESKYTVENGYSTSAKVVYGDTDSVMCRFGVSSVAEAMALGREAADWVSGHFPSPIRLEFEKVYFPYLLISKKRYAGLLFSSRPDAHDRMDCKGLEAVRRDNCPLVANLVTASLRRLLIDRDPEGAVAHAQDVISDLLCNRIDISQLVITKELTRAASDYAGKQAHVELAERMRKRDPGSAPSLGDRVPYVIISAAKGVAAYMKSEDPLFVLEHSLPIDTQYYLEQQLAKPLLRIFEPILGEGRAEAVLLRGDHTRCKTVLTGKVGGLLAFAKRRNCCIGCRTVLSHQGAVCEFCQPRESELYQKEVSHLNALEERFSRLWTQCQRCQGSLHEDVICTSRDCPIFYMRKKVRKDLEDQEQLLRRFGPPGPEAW
T2 sequence (P49005 whole entry, stated change not applied, chain 2 of 3): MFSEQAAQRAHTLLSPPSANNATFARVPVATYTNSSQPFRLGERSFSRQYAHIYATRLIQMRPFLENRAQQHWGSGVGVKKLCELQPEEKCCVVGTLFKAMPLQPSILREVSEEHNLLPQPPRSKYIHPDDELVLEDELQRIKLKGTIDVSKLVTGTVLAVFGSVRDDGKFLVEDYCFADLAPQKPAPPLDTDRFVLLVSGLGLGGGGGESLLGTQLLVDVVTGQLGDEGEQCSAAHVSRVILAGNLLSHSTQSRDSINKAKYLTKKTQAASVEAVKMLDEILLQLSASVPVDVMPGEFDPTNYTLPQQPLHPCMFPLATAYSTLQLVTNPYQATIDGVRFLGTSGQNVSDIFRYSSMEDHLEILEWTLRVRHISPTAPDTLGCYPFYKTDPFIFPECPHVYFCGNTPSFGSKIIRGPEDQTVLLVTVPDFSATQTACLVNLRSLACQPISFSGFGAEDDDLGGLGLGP
T2 sequence (Q9HCU8 whole entry, stated change not applied, chain 4 of 3): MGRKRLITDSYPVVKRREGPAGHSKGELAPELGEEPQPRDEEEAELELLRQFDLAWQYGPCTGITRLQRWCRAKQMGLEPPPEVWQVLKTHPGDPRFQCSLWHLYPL

B1: forked DNA (MW12/MW14) (dsDNA)
DNA 1: GTCGGATCCTCTAGACAGCTCCATGATCACTGGCACTGGTAGAATTCGGC
DNA 2: CAACGTCATAGACGATTACATTGCTACATGGAGCTGTCTAGAGGATCCGA
Consider B1, for which the binding result with HelQ was “binds”.

B2: N-HelQ R51G/R52G/R53G (domain or fragment)
chain: MDECGSRIRRRVSLPKRNRPSLGCIFGAPTAAELVPGDEGKEEEEMVAENGGGKTAGVLPVEVQPLLLSDSPECLVLGGGDTNPDLLRHMPTDRGVGDQPNDSEVDMFGDYDSFTENSFIAQVDDLEQKYMQLPEHKKHATDFATENLCSESIKNKLSITTIGNLTELQTDKHTENQSGYEGVTIEPGADLLYDVPSSQAIYFENLQNSSNDLGDHSMKERDWKSSSHNTVNEELPHNCIE
Regarding B2, in data set [1], the end point of DNA synthesis by Pol δ (40 nM) pre-mixed with N-HelQ^RGx3 (5 nM), percent of DNA as product (68.8% uninhibited) came out at 12.7%.

B3: Human HelQ (enzyme, UniProt Q8TDG4 1-1101, looked up)
chain: MDECGSRIRRRVSLPKRNRPSLGCIFGAPTAAELVPGDEGKEEEEMVAENRRRKTAGVLPVEVQPLLLSDSPECLVLGGGDTNPDLLRHMPTDRGVGDQPNDSEVDMFGDYDSFTENSFIAQVDDLEQKYMQLPEHKKHATDFATENLCSESIKNKLSITTIGNLTELQTDKHTENQSGYEGVTIEPGADLLYDVPSSQAIYFENLQNSSNDLGDHSMKERDWKSSSHNTVNEELPHNCIEQPQQNDESSSKVRTSSDMNRRKSIKDHLKNAMTGNAKAQTPIFSRSKQLKDTLLSEEINVAKKTVESSSNDLGPFYSLPSKVRDLYAQFKGIEKLYEWQHTCLTLNSVQERKNLIYSLPTSGGKTLVAEILMLQELLCCRKDVLMILPYVAIVQEKISGLSSFGIELGFFVEEYAGSKGRFPPTKRREKKSLYIATIEKGHSLVNSLIETGRIDSLGLVVVDELHMIGEGSRGATLEMTLAKILYTSKTTQIIGMSATLNNVEDLQKFLQAEYYTSQFRPVELKEYLKINDTIYEVDSKAENGMTFSRLLNYKYSDTLKKMDPDHLVALVTEVIPNYSCLVFCPSKKNCENVAEMICKFLSKEYLKHKEKEKCEVIKNLKNIGNGNLCPVLKRTIPFGVAYHHSGLTSDERKLLEEAYSTGVLCLFTCTSTLAAGVNLPARRVILRAPYVAKEFLKRNQYKQMIGRAGRAGIDTIGESILILQEKDKQQVLELITKPLENCYSHLVQEFTKGIQTLFLSLIGLKIATNLDDIYHFMNGTFFGVQQKVLLKEKSLWEITVESLRYLTEKGLLQKDTIYKSEEEVQYNFHITKLGRASFKGTIDLAYCDILYRDLKKGLEGLVLESLLHLIYLTTPYDLVSQCNPDWMIYFRQFSQLSPAEQNVAAILGVSESFIGKKASGQAIGKKVDKNVVNRLYLSFVLYTLLKETNIWTVSEKFNMPRGYIQNLLTGTASFSSCVLHFCEELEEFWVYRALLVELTKKLTYCVKAELIPLMEVTGVLEGRAKQLYSAGYKSLMHLANANPEVLVRTIDHLSRRQAKQIVSSAKMLLHEKAEALQEEVEELLRLPSDFPGAVASSTDKA
In the case of B3, the “FRET ratio of DNA single-strand annealing by HelQ (125 nM) with Pol δ complex (150 nM) added; 0.51 without Pol δ” value in data set [2] was 0.76 FRET ratio. Besides, the “FRET efficiency of DNA single-strand annealing by HelQ (125 nM) with POLD3 alone (150 nM) added; 0.50 without POLD3, 0.07 with POLD3 alone” value in data set [3] was determined as 0.87 FRET ratio.
